Like-named read-outs stand apart in the source and are kept apart here.
What was measured:
[1] = molecular target: chemokine receptor CCR4 (human) (UniProt P51679); experiment: cell-based or functional assay
[2] = molecular target: chemokine receptor CCR8 (human) (UniProt P51685); experiment: cell-based or functional assay
[3] = molecular target: human chemokine receptor CCR5 (human), P51681; experiment: competition binding against 166 pM 125I-CCL3 on human PBMCs
[4] = molecular target: human chemokine receptor CCR5 (human), P51681; experiment: cell-based or functional assay
[5] = molecular target: T1, chemokine receptor CCR1 (human), P32246; experiment: cell-based or functional assay
T1 chain: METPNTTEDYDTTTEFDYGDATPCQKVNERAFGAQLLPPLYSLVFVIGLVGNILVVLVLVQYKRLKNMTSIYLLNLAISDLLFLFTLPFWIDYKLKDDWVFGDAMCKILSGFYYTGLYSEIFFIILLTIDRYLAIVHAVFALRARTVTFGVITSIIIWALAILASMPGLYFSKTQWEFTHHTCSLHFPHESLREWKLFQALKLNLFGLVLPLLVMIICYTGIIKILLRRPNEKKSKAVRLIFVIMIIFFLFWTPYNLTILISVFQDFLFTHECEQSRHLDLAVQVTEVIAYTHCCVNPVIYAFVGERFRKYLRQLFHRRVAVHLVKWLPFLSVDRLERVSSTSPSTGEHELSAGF

[6] = molecular target: human chemokine receptor CCR5 (human), P51681

Chain of human chemokine receptor CCR5 (human), P51681 (P51681 whole entry): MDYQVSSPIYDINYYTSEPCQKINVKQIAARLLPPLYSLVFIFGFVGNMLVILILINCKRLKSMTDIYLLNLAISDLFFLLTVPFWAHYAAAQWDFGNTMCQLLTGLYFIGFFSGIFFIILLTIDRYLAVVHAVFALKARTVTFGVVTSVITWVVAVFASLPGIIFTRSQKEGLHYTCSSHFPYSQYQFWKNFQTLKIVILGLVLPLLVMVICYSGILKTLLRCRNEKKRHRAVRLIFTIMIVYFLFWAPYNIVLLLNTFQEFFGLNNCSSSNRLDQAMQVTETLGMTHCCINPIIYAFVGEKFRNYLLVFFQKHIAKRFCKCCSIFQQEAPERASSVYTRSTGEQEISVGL
Chain of chemokine receptor CCR8 (human) (P51685 whole entry): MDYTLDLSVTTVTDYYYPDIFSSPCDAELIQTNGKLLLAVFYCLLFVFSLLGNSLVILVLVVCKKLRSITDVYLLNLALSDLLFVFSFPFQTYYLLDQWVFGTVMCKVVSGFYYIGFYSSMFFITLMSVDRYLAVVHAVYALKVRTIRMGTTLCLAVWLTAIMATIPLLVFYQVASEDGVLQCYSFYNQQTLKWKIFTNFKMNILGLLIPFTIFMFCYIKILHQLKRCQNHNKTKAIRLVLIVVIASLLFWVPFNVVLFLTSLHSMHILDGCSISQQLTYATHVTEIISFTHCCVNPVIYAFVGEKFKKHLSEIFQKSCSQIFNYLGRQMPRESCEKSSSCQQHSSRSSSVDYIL
Chain of chemokine receptor CCR4 (human) (P51679 whole entry): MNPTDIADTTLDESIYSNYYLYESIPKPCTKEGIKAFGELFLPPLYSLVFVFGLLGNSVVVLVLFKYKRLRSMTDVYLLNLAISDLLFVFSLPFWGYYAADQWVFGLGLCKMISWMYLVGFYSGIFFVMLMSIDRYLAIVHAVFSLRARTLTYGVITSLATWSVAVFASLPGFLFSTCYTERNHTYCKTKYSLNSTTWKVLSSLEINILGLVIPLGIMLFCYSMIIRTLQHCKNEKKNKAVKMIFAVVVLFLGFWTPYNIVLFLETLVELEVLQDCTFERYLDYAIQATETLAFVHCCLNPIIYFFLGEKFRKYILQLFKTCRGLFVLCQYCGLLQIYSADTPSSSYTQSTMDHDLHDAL

B1: CCL22 (ligand, human, UniProt O00626 25-93, looked up)
chain: GPYGANMEDSVCCRDYVRYRLPLRVVKHFYWTSDSCPRPGVVLLTFRDKEICADPRVPWVKMILNKLSQ
- chemotaxis of HUT78 cells, concentration of maximal efficacy [1]: 10 nM

B2: CCL1/I309 (ligand, human, UniProt P22362 24-96, looked up)
chain: KSMQVPFSRCCFSFAEQEIPLRAILCYRNTSSICSNEGLIFKLKRGKEACALDTVGWVQRHRKMLRHCPSKRK
- EC50, calcium mobilisation in CCR8-CHO cells [2]: 3.87 nM
- chemotaxis of HUT78 cells, concentration of maximal efficacy [2]: 1 nM

Binder: FICSSPDAELFSEKSRMSSSVLLGCLLCCMDWSAAVPV (modifications not checked) [U83A-Npep, N-terminal spliced truncated form of U83A]
- IC50 [3]: 92 nM
- inhibition of HIV-1 YU2 infection at 50 nM [4]: < 50%
- reduction of HIV-1 JRCSF infectivity on CEM-NKR-CCR5-luc cells at 5 uM [4]: 90%
- blocking of CCL3 induced calcium flux in CCR1-CHO cells by 100 nM pre-treatment [5]: 50%
- blocking of the calcium response to 10 nM U83A in CCR1-CHO cells by 100 nM pre-treatment [5]: 50%
- IC50 [6]: 8.3 nM

— US20110098212A1
